Experiment [1] deals with HLA-A*02:03. Put plainly: IEDB peptide-MHC binding, purified MHC/direct/fluorescence; filed as Kd, often an IC50 or EC50 that approximates it; ≥ and ≤ were set here for values at or beyond the usual limits of such assays.
For experiment [2], the target named is HLA-A*02:11. The experiment is described as above.
In experiment [3] the target is HLA-A*02:12. The description is as above.
In experiment [4] the target is HLA-A*02:16. The description is as above.
For experiment [5], the target named is HLA-A*02:19. The experiment is described as above.
Experiment [6] concerns the target HLA-A*03:01. The description is as above.
The target of experiment [7] is HLA-A*11:01. Described as above.
In experiment [8] the target is HLA-A*23:01. The experiment is described as above.
Experiment [9] addresses HLA-A*24:03. The description is as above.
For experiment [10], the target named is HLA-A*29:02. The experiment is described as above.
For experiment [11], the target named is HLA-A*68:02. Described as above.
The target in experiment [12] is HLA-A*02:01. The experiment can be described thus: IEDB peptide-MHC binding, purified MHC/competitive/fluorescence; filed as Kd, often an IC50 or EC50 that approximates it; ≥ and ≤ were set here for values at or beyond the usual limits of such assays.
For experiment [13], the target named is HLA-A*26:01. Described as above.
For experiment [14], the target named is HLA-A*69:01. Described as above.
The target in experiment [15] is HLA-B*15:17. The description is as above.
Experiment [16] addresses HLA-B*18:01. The description is as above.
The target in experiment [17] is HLA-B*39:01. The description is as above.
In experiment [18] the target is HLA-B*46:01. Described as above.
Experiment [19] addresses HLA-B*51:01. The description is as above.
For experiment [20], the target named is HLA-B*57:01. Described as above.
Experiment [21] has as its target HLA-B*27:03. The experiment is described as above. Particulars: source organism: Giardia lamblia ATCC 50803.
Setting [22] is: source organism: Rickettsia bellii OSU 85-389.
Setting [23] is: source organism: Rickettsia bellii RML369-C.
The mark [24] stands for this setting: source organism: Giardia lamblia ATCC 50803.

The results in this text go back to the Immune Epitope Database (IEDB).

By Kd is commonly meant the constant that tells how readily two partners part at equilibrium.

For AKIALAVYK, the Kd in [1] (setting [22]), in [2] (setting [22]), in experiment [3] (setting [22]), in [4] (setting [22]), in experiment [5] (setting [22]) and in experiment [6] (setting [22]) was no less than 20 µM throughout. For the same sequence, the Kd in [7] (setting [22]) was 0.427 µM; in experiment [8] (setting [22]), no less than 20 µM; in experiment [9] (setting [22]) it was no less than 20 µM; in [10] (setting [22]), no less than 20 µM; in experiment [11] (setting [22]) it was no less than 20 µM; in experiment [12] (setting [23]), no less than 20 µM. Also, the Kd in experiment [13] (setting [23]), in experiment [14] (setting [23]), in experiment [15] (setting [23]), in [16] (setting [23]), in experiment [17] (setting [23]) and in experiment [18] (setting [23]) was no less than 20 µM each time. The Kd in experiment [19] (setting [23]) and in experiment [20] (setting [23]) was no less than 20 µM each time.

APDGFYPFK: the Kd in experiment [1] (setting [24]), in experiment [2] (setting [24]), in experiment [3] (setting [24]), in [4] (setting [24]), in [5] (setting [24]) and in experiment [6] (setting [24]) was no less than 20 µM in each case. The Kd is 0.248 µM in [7] (setting [24]); no less than 20 µM in experiment [8] (setting [24]); no less than 20 µM in [9] (setting [24]); no less than 20 µM in experiment [10] (setting [24]); no less than 20 µM in experiment [11] (setting [24]); no less than 20 µM in experiment [12] (setting [24]). Moreover, the Kd in experiment [13] (setting [24]), in experiment [14] (setting [24]), in [15] (setting [24]), in [16] (setting [24]), in [21] and in experiment [17] (setting [24]) was no less than 20 µM throughout. Moreover, the Kd in [18] (setting [24]), in experiment [19] (setting [24]) and in experiment [20] (setting [24]) was no less than 20 µM throughout.
